Measurements taken from PMC2883556 (PLoS ONE, 2010).

Columns and labels:
[1] = target: T1, BoNT/B GST-fusion peptide fragment L1 (Clostridium botulinum strain Okra / …, UniProt B1INP5); assay: ELISA; settings: one partner purified
T1 construct: not shown: GST, N-terminal, kept

[2] = target: T2, BoNT/B GST-fusion peptide fragment L2 (Clostridium botulinum strain Okra / …, UniProt B1INP5); assay: ELISA; settings: one partner purified
T2 construct: Cloned in pGS-21a; not shown: GST, N-terminal, kept

[3] = target: T3, BoNT/B GST-fusion peptide fragment H1 (Clostridium botulinum strain Okra / …, UniProt B1INP5); assay: ELISA; settings: one partner purified
T3 construct: not shown: GST, N-terminal, kept

[4] = target: T4, BoNT/B GST-fusion peptide fragment H2 (Clostridium botulinum strain Okra / …, UniProt B1INP5); assay: ELISA; settings: one partner purified
T4 construct: not shown: GST, N-terminal, kept

[5] = target: T5, BoNT/B GST-fusion peptide fragment H3 (Clostridium botulinum strain Okra / …, UniProt B1INP5); assay: ELISA; settings: one partner purified
T5 construct: Cloned in pGS-21a; not shown: GST, N-terminal, kept

[6] = target: T6, BoNT/B GST-fusion peptide fragment H4 (Clostridium botulinum strain Okra / …, UniProt B1INP5); assay: ELISA; settings: one partner purified
T6 construct: not shown: GST, N-terminal, kept

[7] = target: T7, Botulinum neurotoxin serotype C (Clostridium botulinum, UniProt P18640); assay: ELISA; settings: both partners purified
T7 construct: source: bought: Metabiologics

[8] = target: T8, Botulinum neurotoxin serotype D (Clostridium botulinum, UniProt P19321); assay: ELISA; settings: both partners purified
T8 construct: source: bought: Metabiologics

[9] = target: T9, BoNT/B GST-fusion peptide fragment Lc (Clostridium botulinum Okra / Type B1, UniProt B1INP5); assay: ELISA; settings: one partner purified
T9 construct: not shown: GST, N-terminal, kept

[10] = target: T10, BoNT/B GST-fusion peptide fragment Hc (Clostridium botulinum strain Okra / …, UniProt B1INP5); assay: ELISA; settings: one partner purified
T10 construct: Cloned in pGS-21a; not shown: GST, N-terminal, kept

[11] = target: T11, BoNT/B GST-fusion peptide fragment H5 (Clostridium botulinum Okra / Type B1, UniProt B1INP5); assay: ELISA; settings: one partner purified
T11 construct: Cloned in pGS-21a; not shown: GST, N-terminal, kept

[12] = target: T5, BoNT/B GST-fusion peptide fragment H3; assay: ELISA; settings: one partner purified; remark: listed apart in the source
[13] = target: BoNT/B heavy chain (band of the reduced holotoxin) (Clostridium botulinum Okra / Type B1, UniProt B1INP5); assay: far-Western, overlay or dot blot; settings: both partners purified

| Binder | binding result [1] | binding result [2] | binding result [3] | binding result [4] | binding result [5] | binding result [6] | binding result [7] | binding result [8] | binding result [9] | binding result [10] | binding result [11] | binding result [12] | binding result [13] |
| --- | --- | --- | --- | --- | --- | --- | --- | --- | --- | --- | --- | --- | --- |
| monoclonal antibody MCS6-27 (antibody, V domains shown, also called mAb MCS6-27) VH: EVQLEQSGPGLVKPSQSLSLTCTVTGYSITNDYAWNWIRQFPGNKLEWMGYINYSGTTSYNPSLKSRISITRDTSKNQFFLQFNSVTTEDTATYYCARSPLAYWGQGTLVTVSA VL: DIVLTQTPASLSVSVGETVTITCRASENIYSHLAWYQQKQGKSPQLLVYTATNLADGVPSRFSGRGSGTQYSLKINSLQSEDFGIYFCQHFWGTPWTFGGGTKLEIK | no binding | no binding | no binding | no binding | no binding | no binding | no binding (tested: 10 µg/mL) | no binding (tested: 10 µg/mL) | no binding | binds | binds | – | – |
| monoclonal antibody F29-40 (antibody, V domains shown, also called mAb F29-40) VH: EVQLEESGPELVKPGTSVKISCKASGYSFTGYIINWVMQSQGKTPEWIGRINPNNGDTSYNQKFKGKATLTVDRSSSTAHMEVRSLTSEDSAVYYCARTGFGYWGQGTLVTVSA VL: DIVITQTPASLAVSLGQRATISCRASESINYYGTNLLQWYQQKPGQPPKLLIYAASNVESGVPARFSGSGSGTDFSLNIHPVEEDDIAMYFCQQSRKVPFTFGSGTRLEIK | no binding | no binding | no binding | no binding | – | no binding | no binding (tested: 10 µg/mL) | no binding (tested: 10 µg/mL) | no binding | binds | binds | binds | binds |
